Reference: publication PMC8295636

Target: p53
Test: two-hybrid

SV40T (natural protein)
fold increase of reporter expression over negative controls: > 130 times
